First the molecules themselves.
T1: CD32a-H131 (FcgRIIa-H131) (Homo sapiens, UniProt P12318)
T1 sequence (P12318 34-217 limits assumed): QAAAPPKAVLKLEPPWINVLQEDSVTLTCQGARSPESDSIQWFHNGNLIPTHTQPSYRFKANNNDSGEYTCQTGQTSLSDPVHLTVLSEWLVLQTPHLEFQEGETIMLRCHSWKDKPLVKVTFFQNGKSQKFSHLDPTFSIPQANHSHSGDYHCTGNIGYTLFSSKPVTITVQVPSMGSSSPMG

T2: CD32b (FcgRIIb) (Homo sapiens, UniProt P31994)
T2 sequence (P31994 43-310): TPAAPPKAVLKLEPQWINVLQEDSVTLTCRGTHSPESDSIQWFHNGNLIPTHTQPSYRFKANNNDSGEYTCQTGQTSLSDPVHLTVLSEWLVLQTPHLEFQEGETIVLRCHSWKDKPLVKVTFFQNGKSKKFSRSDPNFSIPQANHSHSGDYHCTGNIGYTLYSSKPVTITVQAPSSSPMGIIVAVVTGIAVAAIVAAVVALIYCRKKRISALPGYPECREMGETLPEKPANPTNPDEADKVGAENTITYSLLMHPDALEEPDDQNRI

T3: CD32a-R131 (FcgRIIa-R131) (Homo sapiens, UniProt P12318, H167R)
T3 sequence (P12318 34-217 H167R limits assumed): T1 sequence (P12318 34-217 limits assumed) with H134R

B1: mAb8-IgG2.3G1-AY-V27 (protein)
constant: ASTKGPSVFPLAPCSRSTSESTAALGCLVKDYFPEPVTVSWNSGALTSGVHTFPAVLQSSGLYSLSSVVTVPSSNFGTQTYTCNVDHKPSNTKVDKTVERKSCVECPPCPAPELLGGPSVFLFPPKPKDTLMISRTPEVTCVVVDVEHEDPEVKFNWYVDGVEVHNAKTKPREEQYNSTYRVVSVLTVLHQDWLNGKEYKCKVSNKALPAPIEKTISKAKGQPREPQVYTLPPSREEMTKNQVSLTCLVKGFYPSDIAVEWESNGQPENNYKTTPPVLDSDGSFFLYSKLTVDKSRWQQGNVFSCSVMHEALHNHYTQKSLSLSPGK
modifications: left off: another chain or arm of the molecule
B2: mAb11-IgG2.3 (protein)
constant: ASTKGPSVFPLAPCSRSTSESTAALGCLVKDYFPEPVTVSWNSGALTSGVHTFPAVLQSSGLYSLSSVVTVPSSNFGTQTYTCNVDHKPSNTKVDKTVERKSCVECPPCPAPPVAGPSVFLFPPKPKDTLMISRTPEVTCVVVDVSHEDPEVQFNWYVDGVEVHNAKTKPREEQFNSTFRVVSVLTVVHQDWLNGKEYKCKVSNKGLPAPIEKTISKTKGQPREPQVYTLPPSREEMTKNQVSLTCLVKGFYPSDIAVEWESNGQPENNYKTTPPMLDSDGSFFLYSKLTVDKSRWQQGNVFSCSVMHEALHNHYTQKSLSLSPGK
modifications: left off: another chain or arm of the molecule
B3: mAb6-IgG2.3 (protein)
constant: B2 constant
modifications: left off: another chain or arm of the molecule
B4: mAb5-IgG2.3 (protein)
constant: B2 constant
modifications: left off: another chain or arm of the molecule
B5: mAb12-IgG2.3 (protein)
constant: B2 constant
modifications: left off: another chain or arm of the molecule
B6: mAb11-IgG2.5 (protein)
constant: B2 constant with C14S, S102C
modifications: left off: another chain or arm of the molecule
B7: mAb4-IgG2.3 (protein)
constant: B2 constant
modifications: left off: another chain or arm of the molecule
B8: mAb8-IgG2.5 (protein)
constant: B2 constant with C14S, S102C
modifications: left off: another chain or arm of the molecule
B9: mAb13-IgG2.3 (protein)
constant: B2 constant
modifications: left off: another chain or arm of the molecule
B10: mAb7-IgG2.5 (protein)
constant: B2 constant with C14S, S102C
modifications: left off: another chain or arm of the molecule
B11: mAb10-IgG2.3G1-AY-V27 (protein)
constant: B1 constant
modifications: left off: another chain or arm of the molecule
B12: mAb10-IgG2.5 (protein)
constant: B2 constant with C14S, S102C
modifications: left off: another chain or arm of the molecule
B13: mAb12-IgG2.5 (protein)
constant: B2 constant with C14S, S102C
modifications: left off: another chain or arm of the molecule

Numbering of substitutions follows the chain as printed.

CD16B-NA2 (FcgRIIIb-NA2), sequence (O75015 17-200 limits assumed): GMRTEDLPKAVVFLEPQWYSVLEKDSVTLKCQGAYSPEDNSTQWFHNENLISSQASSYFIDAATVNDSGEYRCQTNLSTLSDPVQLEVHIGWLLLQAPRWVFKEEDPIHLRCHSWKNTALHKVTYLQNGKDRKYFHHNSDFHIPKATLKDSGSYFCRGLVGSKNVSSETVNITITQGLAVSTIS
CD64 (FcgRI), sequence (P12314 16-374): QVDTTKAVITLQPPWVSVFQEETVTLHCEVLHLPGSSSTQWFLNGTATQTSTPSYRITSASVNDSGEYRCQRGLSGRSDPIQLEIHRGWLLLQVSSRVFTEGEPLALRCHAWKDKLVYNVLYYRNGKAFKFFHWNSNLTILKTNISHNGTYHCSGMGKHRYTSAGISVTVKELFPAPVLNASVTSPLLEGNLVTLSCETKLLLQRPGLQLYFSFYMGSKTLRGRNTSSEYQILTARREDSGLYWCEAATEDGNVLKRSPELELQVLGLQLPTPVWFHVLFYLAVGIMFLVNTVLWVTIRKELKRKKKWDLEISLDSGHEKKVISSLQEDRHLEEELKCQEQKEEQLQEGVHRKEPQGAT

In one test the target is T1, CD32a-H131 (FcgRIIa-H131). Nature of the test: SPR, antibody binding to anti-his Fab captured FcgR-his (% Rmax). Conditions: 1 μM antibody. The method, then:
(§1) The binding of antibodies to Fc gamma receptors (FcγRs or FcgRs) was studied using biosensor technologies including Biacore surface plasmon resonance (SPR) and Fortebio Biolayer Interferometry (BLI). SPR studies were performed on a Biacore T100 instrument (GE Healthcare) at 25° C. The Fab fragment from a murine anti-6×His antibody was immobilized on a CM5 sensor chip using EDC/NHS to a density of −3000 RU. Various his-tagged FcgRs (7 ug/ml) were captured via the C-terminal his-tag using a contact time of 30 s at 10 ul/min, and the binding of 1.0 μM antibody was evaluated in a running buffer of 10 mM NaPO4, 130 mM NaCl, 0.05% p20 (PBS-T) pH 7.1. FcgRs used for these experiments included CD64 (FcgRI), CD32a-H131 (FcgRIIa-H131), CD32a-R131 (FcgRIIa-R131), CD32b (FcgRIIb), CD16a-V158 (FcgRIIIa-V158), CD16b-NA1 (FcgRIIIb-NA1), and CD16B-NA2 (FcgRIIIb-NA2). BLI experiments were performed on a Fortebio Octet RED instrument (Pall, Fortebio) at 25° C. in 10 mM NaPO4, 130 mM NaCl, 0.05% p20 (PBS-T) pH 7.1. Antibodies were captured out of undiluted expression supernatants on protein A coated sensors, followed by the binding of 1 μM hCD32a-H131, hCD32a-R131, hCD32b, hCD16a-V158, or 0.1 μM hCD64 analytes.
In general terms: SPR reads the build-up and loss of mass on a sensor chip optically.
B1: the “% Rmax hCD32a-H131” value is 67%.

As to B2, the “% Rmax hCD32a-H131” value came to 44%.

As to B3, the “% Rmax hCD32a-H131” value is recorded as 66%.

Take B4: the “% Rmax hCD32a-H131” value is reported as 100%.

Turning to B5, the “% Rmax hCD32a-H131” value worked out at 39%.

Consider B6, for which the “% Rmax hCD32a-H131” value amounted to 40%.

For the molecule B7, the “% Rmax hCD32a-H131” value amounted to 39%.

On to B8, for which the “% Rmax hCD32a-H131” value is reported as 59%.

As for B9, the “% Rmax hCD32a-H131” value turned out to be 40%.

As for B10, the “% Rmax hCD32a-H131” value stood at 72%.

The target of the next test is T2, CD32b (FcgRIIb). Described as above. Conditions: 1 μM antibody. As to the method:
as §1
For the molecule B1, the “% Rmax hCD32b” value is on record as 67%.

Take B11: the “% Rmax hCD32b” value is listed as 40%.

Regarding B2, the “% Rmax hCD32b” value turned out to be 5%.

Regarding B3, the “% Rmax hCD32b” value is reported as 3%.

With B4, the “% Rmax hCD32b” value is 4%.

For the molecule B5, the “% Rmax hCD32b” value came out at 1%.

Take B12: the “% Rmax hCD32b” value turned out to be 1%.

Regarding B6, the “% Rmax hCD32b” value was found to be 3%.

On to B7, for which the “% Rmax hCD32b” value worked out at 1%.

As for B8, the “% Rmax hCD32b” value is 3%.

For the molecule B9, the “% Rmax hCD32b” value worked out at 1%.

On to B13, for which the “% Rmax hCD32b” value is 1%.

As for B10, the “% Rmax hCD32b” value is given as 2%.

The next test addresses T3, CD32a-R131 (FcgRIIa-R131). The description is as above. Particulars: 1 μM antibody. The method, then: as §1
In the case of B1, the “% Rmax hCD32a-R131” value is reported as 80%.

Take B11: the “% Rmax hCD32a-R131” value is listed as 57%.

As to B2, the “% Rmax hCD32a-R131” value stood at 17%.

Consider B3, for which the “% Rmax hCD32a-R131” value was found to be 14%.

Turning to B4, the “% Rmax hCD32a-R131” value turned out to be 30%.

On to B5, for which the “% Rmax hCD32a-R131” value stood at 7%.

As for B12, the “% Rmax hCD32a-R131” value is given as 5%.

On to B6, for which the “% Rmax hCD32a-R131” value stood at 13%.

Take B7: the “% Rmax hCD32a-R131” value is 6%.

On to B8, for which the “% Rmax hCD32a-R131” value is recorded as 14%.

B9: the “% Rmax hCD32a-R131” value turned out to be 7%.

As for B13, the “% Rmax hCD32a-R131” value was 6%.

As for B10, the “% Rmax hCD32a-R131” value is recorded as 19%.

The next test has as its target CD64 (FcgRI) (Homo sapiens, UniProt P12314). The test is described as above. Conditions: 1 μM antibody. As to the method:
as §1
As to B1, the “% Rmax hCD64” value stood at 78%.

For B11, the “% Rmax hCD64” value is 69%.

In the case of B2, the “% Rmax hCD64” value was determined as 2%.

Consider B3, for which the “% Rmax hCD64” value was found to be 3%.

Consider B4, for which the “% Rmax hCD64” value came out at 6%.

As for B5, the “% Rmax hCD64” value is listed as 2%.

On to B12, for which the “% Rmax hCD64” value is given as 1%.

Turning to B6, the “% Rmax hCD64” value was 0%.

As to B7, the “% Rmax hCD64” value is 1%.

B8: the “% Rmax hCD64” value is listed as 3%.

B9: the “% Rmax hCD64” value amounted to 2%.

Consider B13, for which the “% Rmax hCD64” value amounted to 1%.

For the molecule B10, the “% Rmax hCD64” value stood at 4%.

The target in the next test is CD16B-NA2 (FcgRIIIb-NA2) (Homo sapiens, UniProt O75015). The test is described as above. Particulars: 1 μM antibody. As to the method:
as §1
As for B1, the “% Rmax hCD16B-NA2” value was 7%.

B11: the “% Rmax hCD16B-NA2” value worked out at 3%.

For B2, the “% Rmax hCD16B-NA2” value is reported as 0%.

With B3, the “% Rmax hCD16B-NA2” value is given as 0%.

Take B4: the “% Rmax hCD16B-NA2” value worked out at 0%.

For B5, the “% Rmax hCD16B-NA2” value is 0%.

For B12, the “% Rmax hCD16B-NA2” value is 0%.

Turning to B6, the “% Rmax hCD16B-NA2” value was −1%.

With B7, the “% Rmax hCD16B-NA2” value is on record as 0%.

With B8, the “% Rmax hCD16B-NA2” value is reported as 0%.

B9: the “% Rmax hCD16B-NA2” value was 0%.

As to B13, the “% Rmax hCD16B-NA2” value is given as 0%.

As for B10, the “% Rmax hCD16B-NA2” value is recorded as 0%.

A further test deals with CD16a-V158 (FcgRIIIa-V158) (Homo sapiens, UniProt P08637, F176V). The test is described as above. Particulars: 1 μM antibody. As to the method: as §1
CD16a-V158 (FcgRIIIa-V158), sequence (P08637 17-208 F176V limits assumed): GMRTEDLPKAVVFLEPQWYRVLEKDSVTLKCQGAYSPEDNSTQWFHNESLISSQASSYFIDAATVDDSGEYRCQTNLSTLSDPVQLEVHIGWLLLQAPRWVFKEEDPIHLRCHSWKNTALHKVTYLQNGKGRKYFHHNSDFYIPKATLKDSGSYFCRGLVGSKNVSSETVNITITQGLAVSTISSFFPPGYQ
On to B11, for which the “% Rmax hCD16a-V158” value was determined as 12%.

In the case of B2, the “% Rmax hCD16a-V158” value turned out to be 1%.

As to B3, the “% Rmax hCD16a-V158” value was determined as 1%.

Consider B4, for which the “% Rmax hCD16a-V158” value was 3%.

With B5, the “% Rmax hCD16a-V158” value amounted to 1%.

Turning to B12, the “% Rmax hCD16a-V158” value is on record as 1%.

In the case of B6, the “% Rmax hCD16a-V158” value is recorded as 0%.

As for B7, the “% Rmax hCD16a-V158” value is reported as 1%.

In the case of B8, the “% Rmax hCD16a-V158” value is listed as 2%.

In the case of B9, the “% Rmax hCD16a-V158” value is on record as 1%.

With B13, the “% Rmax hCD16a-V158” value came out at 1%.

On to B10, for which the “% Rmax hCD16a-V158” value turned out to be 2%.

The record behind these values is patent US20190284293A1, “COMBINATION THERAPY WITH ANTI-CD73 ANTIBODIES” (BRISTOL-MYERS SQUIBB COMPANY, priority 2016, published 2019).
